{"source": "patent US8846868B2", "about": "“Anti-AREG/HB-EGF antibodies and treatment” (Fusion Antibodies Limited, priority 2008, dated 2014)", "molecules": {"B1": {"name": "8d7 1c8 1e9: cross-specific AREG/HBEGF murine monoclonal antibody; VH Sequence ID No: 5, VL Sequence ID No: 6 (antibody, listed as Mus musculus)", "VH": "MEWSWVILFLMAVVTGVNSEVQLQQSGAELVRPGALVKLSCKASGFNIKDSYIHWVNQRPEQGLEWIGWIDPENGNTIYDPKFQGKASITADTSSNTAYLQLSSLTSEDTAVYYCVSASYRYGFSYWGQGTLVTVSAAKTTPPSVYPWVPGSLX", "VL": "XADXISISCRSNKSLLHTNGNTYLYWFLQRPGQSPQLLIYRMSNLASGVPDRFSGSGSGTAFTLRISRVEAEDVGVYYCMQHLEYPYTFGGGTKLEIKRXX", "modifications": "not fully specified; (154)..(154) Xaa can be any naturally occurring amino acid; (1)..(1) Xaa can be any naturally occurring amino acid"}, "B2": {"name": "Recombinant HBEGF: recombinant HBEGF ligand used to stimulate cell growth and EGFR phosphorylation (protein)", "chain": "DLQEADLDLLRVTLSSKPQALATPNKEEHGKRKKKGKGLGKKRDPCLRKYKDFCIHGECKYVKELRAPSCICHPGYHGERCHGLSL"}, "B3": {"name": "8d7 1f6 2f7: cross-specific AREG/HBEGF murine monoclonal antibody; VH Sequence ID No: 7, VL Sequence ID No: 8 (antibody, listed as Mus musculus)", "VH": "MKCSWIIFFLMAVVTGVNSEVQLQQSGAELVRPGALVKLSCKASGFNIKDSYIHWVNQRPEQGLEWIGWIDPENGNTIYDPKFQGKASITADTSSNTAYLQLSSLTSEDTAVYYCVSASYRYGFSYWGQGTLVTVSAAKTTPPPVYPLAPGSL", "VL": "MRAPAQFLGLLVLWIPGAIGDIVMTQAAPSVPVTPGESVSISCRSNKSLLHTNGNTYLYWFLQRPGQSPQLLIYRMSNLASGVPDRFSGSGSGTAFTLRISRVEAEDVGVYYCMQHLEYPYTFGGGTKLEIKRADAAPTVSIFPPSSKLG"}, "B4": {"name": "8d7 1f6 2b3: cross-specific AREG/HBEGF murine monoclonal antibody; VH Sequence ID No: 9, VL Sequence ID No: 10 (antibody, listed as Mus musculus)", "VH": "MKCSWVMFFLMAVVTGVNSEVQLQQSGAELVRPGALVKLSCKASGFNIKDSYIHWVNQRPEQGLEWIGWIDPENGNTIYDPKFQGKASITADTSSNTAYLQLSSLTSEDTAVYYCVSASYRYGFSYWGQGTLVTVSAAKTTPPPVYPLAPGSL", "VL": "MRPPLSFLGLLVLWIPGAIGDIVMTQAAPSVPVTPGESVSISCRSNKSLLHTNGNTYLYWFLQRPGQSPQLLIYRMSNLASGVPDRFSGSGSGTAFTLRISRVEAEDVGVYYCMQHLEYPYTFGGGTKLEIKRADAAPTVSIFPPSSKLG"}}, "key": {"cell growth": {"system": "cell growth", "experiment": "Comparison of cross-specific antibody to Cetuximab, MTT cell viability", "type": "cell-based", "conditions": "cell growth assay", "method": "Antibodies were added to cells at concentration of 20 ug/ml and 40 ug/ml alone and in combination with chemotherapy treatment. Cell viability was assessed 72 hrs after treatment by MTT assay. ** indicates nt P<0.001. * indicates p<0.05."}, "[1]": {"system": "colorectal cancer cell line LoVo", "experiment": "HBEGF ligand stimulated growth, MTT assay", "type": "cell-based", "description": "Different concentrations of cross-specific antibody was preincubated with ligand for an hour before addition to cells. Cell viability was assessed 48 hrs after treatment by MTT assay.\n(§1) Cell viability was assessed by 3-(4,5-dimethylthiazol-2-yl)-2,5-diphenyltetrazolium bromide (MTT, Sigma) assay (Mosmann, 1983). To assess chemotherapy/siRNA interactions 5000 cells were seeded per well on 96 well plate. After 24 hours cells were transfected with siRNA and treated with various chemotherapeutic agents at different concentrations. After 48 hours MTT (1.0 mg/ml) was added to each well and cells were incubated at 37° C. for 2 hours. The culture media was removed and formazan crystals were reabsorbed in 200 μl DMSO. Cell viability was determined by reading the absorbance of each well at 570 nm using a microplate reader (Tecan Sunrise, Biorad, UK)."}, "[2]": {"system": "pEGFR(Tyr1068) in MDA-MB231 cells", "experiment": "Ligand stimulated phosphorylation of EGFR, MDA-MB231", "type": "cell-based, human", "conditions": "antibody pre-incubated with recombinant HBEGF 1 hour, 20 mins stimulation", "description": "(§2) Cells were serum starved before addition of antibody and ligand. Cross-specific antibody (8d7 1f6 2f7, i.e. “2F7”) was pre-incubated with recombinant HBEGF for 1 hour before addition to cells. Cells were stimulated for 20 mins before preparation of cell lysates. 30 μg of protein was loaded on SDS-PAGE gel and transferred to nitrocellulose membrane. The membrane was probed with anti pEGFR(Tyr^1068)\n(§3) 1.5×10^6 cells were seeded in […] in media containing 10% serum. 24 hrs after seeding cells were serum starved for 4 hrs. Antibodies were preincubated for 1 hour with 30 ng/ml of recombinant HBEGF before being added to cells for 20 mins in 2% serum. Cells were washed 3 times in PBS containing phosphatase inhibitors and scraped. Cells were pelleted and lysed. Protein concentration was determined and 30 ug of protein ran on SDS-PAGE for western blot analysis. Blots were probed with pEGFR(Tyr^1068) antibody."}, "[3]": {"system": "pEGFR(Tyr1068) in HCT116 cells", "experiment": "Ligand stimulated phosphorylation of EGFR, HCT116", "type": "cell-based, human", "conditions": "antibody pre-incubated with recombinant HBEGF 1 hour, 20 mins stimulation", "description": "as §2, §3"}, "[4]": {"system": "pEGFR(Tyr 1068) in LoVo cells", "experiment": "Ligand stimulated phosphorylation of EGFR, LoVo", "type": "cell-based", "conditions": "antibody pre-incubated with recombinant HBEGF 1 hour, 20 mins stimulation", "description": "Cells were serum starved before addition of antibody and ligand. Cross-specific antibody (8d7 1f6 2f7, i.e. “2F7”) was pre-incubated with recombinant HBEGF for 1 hour before addition to cells. Cells were stimulated for 20 mins before preparation of cell lysates. 30 μg of protein was loaded on SDS-PAGE gel and transferred to nitrocellulose membrane. The membrane was probed with anti pEGFR(Tyr 1068)\nas §3"}, "[5]": {"system": "cancer cell proliferation", "experiment": "Cancer cell proliferation, cross-specific antibody alone or with cpt11, MTT assay", "type": "cell-based", "conditions": "100 nM antibody in combination with 10 μM cpt11; MTT 72 hrs", "description": "Cells were treated with 100 nM isotype control or 100 nM cross-specific antibody (8d7 1f6 2f7 i.e. “2F7” or 8d7 1f6 2b3 i.e. “2B3” alone or in combination with 10 μM cpt11. Cells were analysed by MTT assay after 72 hrs treatment. ** indicates statistically significant P<0.001. 2B3 RI value is 0.99 therefore an additive effect. 2F7 RI value is 1.1 therefore (slightly) synergistic.\nas §1"}}}
{"molecule": "CCc1c2c(nc3ccc(OC(=O)N4CCC(N5CCCCC5)CC4)cc13)-c1cc3c(c(=O)n1C2)COC(=O)[C@]3(O)CC", "note": "[cpt-11, irinotecan]", "values": [{"measurement": "IC30", "setting": "cell growth", "value": 5, "unit": "µM"}]}
{"molecule": "B1", "values": [{"measurement": "effect on HBEGF stimulation of cell growth", "setting": "[1]; 300 nM antibody", "value": "prevents any stimulation of cell growth by HBEGF"}, {"measurement": "inhibition of ligand induced growth", "setting": "[1]; different antibody concentrations pre-incubated with HBEGF 1 hr, MTT 48 hrs", "value": "inhibit the ligand induced growth in a dose dependent manner"}]}
{"molecule": "B2", "values": [{"measurement": "stimulation of growth", "setting": "[1]; recombinant HBEGF ligand, MTT 48 hrs", "value": "approximately 60%"}]}
{"molecule": "B3", "values": [{"measurement": "inhibition of HBEGF stimulated phosphorylation of EGFR", "setting": "[2]", "value": "inhibition of ligand stimulation phosphorylation of EGFR"}, {"measurement": "inhibition of HBEGF stimulated phosphorylation of EGFR", "setting": "[3]", "value": "inhibition of ligand stimulation phosphorylation of EGFR"}, {"measurement": "inhibition of HBEGF stimulated phosphorylation of EGFR", "setting": "[4]", "value": "inhibition of ligand stimulation phosphorylation of EGFR"}, {"measurement": "RI value", "setting": "[5]", "value": 1.1}]}
{"molecule": "B4", "values": [{"measurement": "RI value", "setting": "[5]", "value": 0.99}]}
